Laboratory results: article doi:10.1101/2024.12.20.629688

Experiments:
[1] = target: myristoylated human Arf1, GTP-bound form, anchored on membrane (nanodiscs or LUVs) (human) (UniProt P84077); assay: not stated; binding of the K391A mutant, shown in Fig. SI5
[2] = target: myristoylated human Arf1, GTP-bound form, anchored on membrane (nanodiscs or LUVs) (human) (UniProt P84077)
[3] = target: myrArf1 with Glu54 mutated to Ala (human) (UniProt P84077)
[4] = target: myristoylated human Arf1, GTP-bound form, anchored on membrane (nanodiscs or LUVs) (human) (UniProt P84077); remark: listed apart in the source

Sequence of myristoylated human Arf1, GTP-bound form, anchored on membrane (nanodiscs or LUVs) (human) (P84077 whole entry): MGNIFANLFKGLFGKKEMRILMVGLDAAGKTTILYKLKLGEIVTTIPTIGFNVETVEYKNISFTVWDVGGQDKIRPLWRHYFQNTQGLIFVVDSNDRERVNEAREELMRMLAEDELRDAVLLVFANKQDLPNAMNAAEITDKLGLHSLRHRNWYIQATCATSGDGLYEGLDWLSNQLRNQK
Sequence of PZA with Lys391 mutated to Ala (Q9QWY8 other isoform, or with tags, fused parts or gaps, change not shown): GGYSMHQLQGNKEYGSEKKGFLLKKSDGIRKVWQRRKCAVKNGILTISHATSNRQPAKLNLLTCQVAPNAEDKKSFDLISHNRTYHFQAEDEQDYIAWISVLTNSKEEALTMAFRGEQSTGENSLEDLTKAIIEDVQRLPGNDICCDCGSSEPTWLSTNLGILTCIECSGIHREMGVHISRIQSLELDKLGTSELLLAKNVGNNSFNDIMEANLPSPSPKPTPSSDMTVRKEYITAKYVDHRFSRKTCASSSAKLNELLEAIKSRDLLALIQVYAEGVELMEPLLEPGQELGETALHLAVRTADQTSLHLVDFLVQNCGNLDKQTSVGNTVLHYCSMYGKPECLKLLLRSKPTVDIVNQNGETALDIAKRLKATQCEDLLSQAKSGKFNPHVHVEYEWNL
Sequence of wt PZA, [325–724]ASAP1 (PH, Arf GAP and ankyrin repeat domains) (Q9QWY8 325-724): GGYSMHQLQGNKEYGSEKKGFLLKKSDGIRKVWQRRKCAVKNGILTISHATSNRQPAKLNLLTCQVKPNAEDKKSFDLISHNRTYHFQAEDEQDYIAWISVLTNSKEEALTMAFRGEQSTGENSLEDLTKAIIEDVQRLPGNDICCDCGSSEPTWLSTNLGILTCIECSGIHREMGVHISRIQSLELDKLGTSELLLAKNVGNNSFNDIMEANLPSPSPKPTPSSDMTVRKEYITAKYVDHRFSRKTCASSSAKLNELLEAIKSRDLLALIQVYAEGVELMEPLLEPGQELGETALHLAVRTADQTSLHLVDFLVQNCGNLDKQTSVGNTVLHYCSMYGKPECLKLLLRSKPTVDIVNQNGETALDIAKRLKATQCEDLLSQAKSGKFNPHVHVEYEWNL
Sequence of myrArf1 with Glu54 mutated to Ala (human) (P84077 other isoform, or with tags, fused parts or gaps, change not shown): as the sequence (P84077 whole entry) above, with E54A counted along it
Sequence of ΔN14 PZA (PZA without residues 325–338) (Q9QWY8 339-724, stated change not applied): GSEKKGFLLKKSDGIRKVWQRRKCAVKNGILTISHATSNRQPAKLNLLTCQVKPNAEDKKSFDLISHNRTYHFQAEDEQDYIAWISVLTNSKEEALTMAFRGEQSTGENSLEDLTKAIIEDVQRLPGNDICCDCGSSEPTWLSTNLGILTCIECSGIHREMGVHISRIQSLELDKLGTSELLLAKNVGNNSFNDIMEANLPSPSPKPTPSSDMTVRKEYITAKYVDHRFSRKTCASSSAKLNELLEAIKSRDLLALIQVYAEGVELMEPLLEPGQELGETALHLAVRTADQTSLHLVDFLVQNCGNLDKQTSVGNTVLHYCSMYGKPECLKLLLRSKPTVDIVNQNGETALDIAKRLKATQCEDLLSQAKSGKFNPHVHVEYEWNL
Sequence of PZA with Phe438 mutated to Ala (Q9QWY8 other isoform, or with tags, fused parts or gaps, change not shown): as the sequence (Q9QWY8 325-724) above, with F114A counted along it
Sequence of PZA with His405 mutated to Glu (Q9QWY8 other isoform, or with tags, fused parts or gaps, change not shown): as the sequence (Q9QWY8 325-724) above, with H81E counted along it

Row | ArfGAP activity (C50: concentration of PZA for 50% GTP hydrolysis in 3 min), fold reduction against wild type [2] [fold] | Substance | further results
1 | – | ASAP1 PH domain with Lys391 mutated to Ala (from UniProt Q9QWY8 325-451) (domain or fragment) | fold reduction of binding against wild type [1]: 2 fold
2 | 5 | PZA with His405 mutated to Glu (from UniProt Q9QWY8 325-724) (domain or fragment) | –
3 | 100 | PZA with Lys391 mutated to Ala (from UniProt Q9QWY8 325-724) (domain or fragment) | –
4 | 15 | PZA with Phe438 mutated to Ala (from UniProt Q9QWY8 325-724) (domain or fragment) | –
5 | – | wt PZA, [325–724]ASAP1 (PH, Arf GAP and ankyrin repeat domains) (from UniProt Q9QWY8 325-724) (domain or fragment) | ArfGAP activity (C50: concentration of PZA for 50% GTP hydrolysis in 3 min), fold reduction against wild type [3]: 70 fold
6 | – | ΔN14 PZA (PZA without residues 325–338) (from UniProt Q9QWY8 339-724) (domain or fragment) | GAP activity relative to wt PZA (fold of wt PZA) [4]: < 0.01
